Experimental data as given in PMC10233817.
Where two headings read alike, the source gives them in different places.

How the values were obtained:
EWS RRM-RG2 [1] = molecular target: T1, EWS RRM-RG2 (UniProt Q01844 361-517); test: ITC
T1 sequence: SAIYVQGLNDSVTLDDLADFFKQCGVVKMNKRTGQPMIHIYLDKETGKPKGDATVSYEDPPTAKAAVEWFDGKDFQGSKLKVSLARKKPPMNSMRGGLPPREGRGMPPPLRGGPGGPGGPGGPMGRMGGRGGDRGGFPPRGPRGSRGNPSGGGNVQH

EWS RRM = molecular target: T2, EWS RRM (UniProt Q01844 361-447); test: ITC
T2 sequence: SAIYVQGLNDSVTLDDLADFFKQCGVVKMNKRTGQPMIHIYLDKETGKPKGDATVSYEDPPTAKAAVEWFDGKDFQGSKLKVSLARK

EWS RRM-RG2-ZnF [2] = molecular target: T3, EWS RRM-RG2-ZnF (UniProt Q01844 361-549); test: ITC
Target sequence in this assay (Q01844 361-549): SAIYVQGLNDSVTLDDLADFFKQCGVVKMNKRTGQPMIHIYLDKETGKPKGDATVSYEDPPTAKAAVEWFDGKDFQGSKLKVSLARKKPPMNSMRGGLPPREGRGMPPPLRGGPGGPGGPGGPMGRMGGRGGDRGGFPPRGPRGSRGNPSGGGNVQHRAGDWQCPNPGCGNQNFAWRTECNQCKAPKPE

EWS RRM-RG2-ZnF [3] = molecular target: T3, EWS RRM-RG2-ZnF; test: EMSA
EWS RRM-RG2 [4] = molecular target: T1, EWS RRM-RG2; test: EMSA
EWS RRM-RG2-ZnF [5] = molecular target: T3, EWS RRM-RG2-ZnF; test: EMSA; remark: listed apart in the source
EWS RRM-RG2 [6] = molecular target: T1, EWS RRM-RG2; test: EMSA; remark: listed apart in the source

## TAAGGGAGGGCGGGAGGGAA (structured_DNA) [pu20m2 DNA G4]
EWS RRM-RG2 [1]
  Kd: 3.28 ± 0.5 µM
EWS RRM
  Kd: 22.3 ± 6.8 µM
EWS RRM-RG2-ZnF [2]
  Kd: 3.96 ± 0.7 µM

## GGAUCUUUAACUACUCAAGAUACUGAACAUGACAUGGUA (structured_RNA) [SON-GGU]
EWS RRM-RG2-ZnF [3]
  binding result: binds
EWS RRM-RG2 [4]
  binding result: binds

B1: RNA:DNA hybrid (DNA:RNA)
RNA: GCAGCUGGCACGACAGGUAUGAAUC
DNA: GATTCATACCTGTCGTGCCAGCTGC
EWS RRM-RG2-ZnF [5]
  binding result: binds
EWS RRM-RG2 [6]
  binding result: binds
